Source: patent publication EP1731161A1

Target: tumor necrosis factor alpha (TNFα) (rat) (UniProt P16599)
Experiment: cell-based or functional assay

Sequence of UniProt P16599 (P16599 80-235 limits assumed): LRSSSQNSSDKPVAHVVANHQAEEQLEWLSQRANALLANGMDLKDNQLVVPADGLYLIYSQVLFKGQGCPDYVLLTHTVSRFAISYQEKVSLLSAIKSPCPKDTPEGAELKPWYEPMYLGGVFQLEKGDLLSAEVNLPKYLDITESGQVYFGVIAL

Work on “TNFRII:Fc receptor fragment (from UniProt P20333 23-257) (Fc fusion)” yielded an SPH release from hypoxic (5 hrs) adult rat cardiomyocytes after pretreatment with TNFRII:Fc (fold reduction) of 3.
